Measurements from PMC5935067.

Molecular target: microtubules polymerised from bovine brain tubulin (bovine), Q6B856
Test: TIRF microscopy, single-molecule dwell-time analysis

B1: His-CLASP2γ-eGFP-StrepII (full-length human CLASP2γ with C-terminal eGFP) (natural protein)
chain: MAMGDDKSFDDEESVDGNRPSSAASAFKVPAPKTSGNPANSARKPGSAGGPKVGGASKEGGAGAVDEDDFIKAFTDVPSIQIYSSRELEETLNKIREILSDDKHDWDQRANALKKIRSLLVAGAAQYDCFFQHLRLLDGALKLSAKDLRSQVVREACITVAHLSTVLGNKFDHGAEAIVPTLFNLVPNSAKVMATSGCAAIRFIIRHTHVPRLIPLITSNCTSKSVPVRRRSFEFLDLLLQEWQTHSLERHAAVLVETIKKGIHDADAEARVEARKTYMGLRNHFPGEAETLYNSLEPSYQKSLQTYLKSSGSVASLPQSDRSSSSSQESLNRPFSSKWSTANPSTVAGRVSAGSSKASSLPGSLQRSRSDIDVNAAAGAKAHHAAGQSVRSGRLGAGALNAGSYASLEDTSDKLDGTASEDGRVRAKLSAPLAGMGNAKADSRGRSRTKMVSQSQPGSRSGSPGRVLTTTALSTVSSGVQRVLVNSASAQKRSKIPRSQGCSREASPSRLSVARSSRIPRPSVSQGCSREASRESSRDTSPVRSFQPLASRHHSRSTGALYAPEVYGASGPGYGISQSSRLSSSVSAMRVLNTGSDVEEAVADALKKPARRRYESYGMHSDDDANSDASSACSERSYSSRNGSIPTYMRQTEDVAEVLNRCASSNWSERKEGLLGLQNLLKNQRTLSRVELKRLCEIFTRMFADPHGKRVFSMFLETLVDFIQVHKDDLQDWLFVLLTQLLKKMGADLLGSVQAKVQKALDVTRESFPNDLQFNILMRFTVDQTQTPSLKVKVAILKYIETLAKQMDPGDFINSSETRLAVSRVITWTTEPKSSDVRKAAQSVLISLFELNTPEFTMLLGALPKTFQDGATKLLHNHLRNTGNGTQSSMGSPLTRPTPRSPANWSSPLTSPTNTSQNTLSPSAFDYDTENMNSEDIYSSLRGVTEAIQNFSFRSQEDMNEPLKRDSKKDDGDSMCGGPGMSDPRAGGDATDSSQTALDNKASLLHSMPTHSSPRSRDYNPYNYSDSISPFNKSALKEAMFDDDADQFPDDLSLDHSDLVAELLKELSNHNERVEERKIALYELMKLTQEESFSVWDEHFKTILLLLLETLGDKEPTIRALALKVLREILRHQPARFKNYAELTVMKTLEAHKDPHKEVVRSAEEAASVLATSISPEQCIKVLCPIIQTADYPINLAAIKMQTKVIERVSKETLNLLLPEIMPGLIQGYDNSESSVRKACVFCLVAVHAVIGDELKPHLSQLTGSKMKLLNLYIKRAQTGSGGADPTTDVSGQS
modifications: not checked
For B1, the dwell time at growing microtubule tips, with 10 nM EB1 was 1.8 s, the dwell time of lattice-binding events, with 10 nM EB1 was 0.74 s and the mean dwell time on microtubule tips, without EB1 was 0.67 s. The mean dwell time on the microtubule lattice, without EB1 was 0.49 s, the tip association rate, with 10 nM EB1 was 5.3e+08 M⁻¹ s⁻¹ and the tip association rate, without EB1 was 2.9e+08 M⁻¹ s⁻¹.
